Here are results for two molecules from PMC8093899 (iScience, 2021).

The series “SEC” deals with the molecule itself. The experiment in a line: SEC.
Series [1] has as its target full-length CD146, wild type, with a FLAG tag or a Myc tag (human, UniProt P43121). The experiment in a line: co-IP.

Chain of full-length CD146, wild type, with a FLAG tag or a Myc tag (P43121 24-646): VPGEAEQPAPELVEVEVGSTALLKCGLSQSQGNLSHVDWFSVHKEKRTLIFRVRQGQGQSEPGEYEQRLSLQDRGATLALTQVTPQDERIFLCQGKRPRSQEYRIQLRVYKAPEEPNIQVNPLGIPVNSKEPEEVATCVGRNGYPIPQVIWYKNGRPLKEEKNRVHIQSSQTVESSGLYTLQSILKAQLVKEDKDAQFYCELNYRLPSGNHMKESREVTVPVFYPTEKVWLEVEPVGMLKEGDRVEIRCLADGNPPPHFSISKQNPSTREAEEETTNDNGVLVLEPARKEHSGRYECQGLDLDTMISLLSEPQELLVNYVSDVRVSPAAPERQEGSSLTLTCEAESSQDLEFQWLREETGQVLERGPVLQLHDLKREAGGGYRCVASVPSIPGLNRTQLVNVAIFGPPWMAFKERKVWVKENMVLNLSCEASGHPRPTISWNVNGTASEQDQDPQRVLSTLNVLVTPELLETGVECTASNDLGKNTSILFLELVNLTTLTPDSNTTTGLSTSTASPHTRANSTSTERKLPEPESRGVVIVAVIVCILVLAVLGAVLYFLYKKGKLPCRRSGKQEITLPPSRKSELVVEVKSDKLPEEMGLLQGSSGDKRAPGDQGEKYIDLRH

B1: human CD146 fragment containing domain 4 and domain 5 (D4-D5, Gln336 to Leu519) (domain or fragment, UniProt P43121 336-519, looked up)
chain: QELLVNYVSDVRVSPAAPERQEGSSLTLTCEAESSQDLEFQWLREETGQVLERGPVLQLHDLKREAGGGYRCVASVPSIPGLNRTQLVNVAIFGPPWMAFKERKVWVKENMVLNLSCEASGHPRPTISWNVNGTASEQDQDPQRVLSTLNVLVTPELLETGVECTASNDLGKNTSILFLELVNL
modifications: two N-glycosylation sites on D4 and D5 seen in the electron density map
By stoichiometry N is commonly meant a count of units in the complex or per binding partner. As to B1, the “stoichiometry N” value in “SEC” is 2.

B2: HA98 (AA98 mAb mutant H13–112: heavy chain (I28K)/light chain (L51Y)) (antibody, V domains shown)
VH: EVQLLESGAELVRPGASVKLSCKTSGYKFTNYWIHWVKQRSGQGLEWIARIYPGTDITYYNEKFKGKATLTVDKSSSSAYMLLSSLKSEDSSVYFCARSGGYWYFDVWGAGTTVTVSS
VL: ELVMTQSPASLAVSLGQRATISCRASKSVSISGYSYMHWYQQKPGQPPKLYIYLASNLESGVPARFSGSGSGTDFTLNIHPVEEEDAATYYCQHSRELPYTFGGGTKLEIK
On to B2, for which, in series [1], the binding result is recorded as “binds”.
